Test results reported in publication PMC4067148 (Biochemistry, 2014).
Substitutions are numbered along the chain they refer to. Names may count otherwise.

Tests used:
native gel or EMSA [1] = biological target: the molecule itself; assay: native gel or EMSA
native gel or EMSA [2] = biological target: the molecule itself; assay: native gel or EMSA; remark: listed apart in the source

B1: wild-type AcrB (natural protein, Escherichia coli)
chain: MPNFFIDRPIFAWVIAIIIMLAGGLAILKLPVAQYPTIAPPAVTISASYPGADAKTVQDTVTQVIEQNMNGIDNLMYMSSNSDSTGTVQITLTFESGTDADIAQVQVQNKLQLAMPLLPQEVQQQGVSVEKSSSSFLMVVGVINTDGTMTQEDISDYVAANMKDAISRTSGVGDVQLFGSQYAMRIWMNPNELNKFQLTPVDVITAIKAQNAQVAAGQLGGTPPVKGQQLNASIIAQTRLTSTEEFGKILLKVNQDGSRVLLRDVAKIELGGENYDIIAEFNGQPASGLGIKLATGANALDTAAAIRAELAKMEPFFPSGLKIVYPYDTTPFVKISIHEVVKTLVEAIILVFLVMYLFLQNFRATLIPTIAVPVVLLGTFAVLAAFGFSINTLTMFGMVLAIGLLVDDAIVVVENVERVMAEEGLPPKEATRKSMGQIQGALVGIAMVLSAVFVPMAFFGGSTGAIYRQFSITIVSAMALSVLVALILTPALCATMLKPIAKGDHGEGKKGFFGWFNRMFEKSTHHYTDSVGGILRSTGRYLVLYLIIVVGMAYLFVRLPSSFLPDEDQGVFMTMVQLPAGATQERTQKVLNEVTHYYLTKEKNNVESVFAVNGFGFAGRGQNTGIAFVSLKDWADRPGEENKVEAITMRATRAFSQIKDAMVFAFNLPAIVELGTATGFDFELIDQAGLGHEKLTQARNQLLAEAAKHPDMLTSVRPNGLEDTPQFKIDIDQEKAQALGVSINDINTTLGAAWGGSYVNDFIDRGRVKKVYVMSEAKYRMLPDDIGDWYVRAADGQMVPFSAFSSSRWEYGSPRLERYNGLPSMEILGQAAPGKSTGEAMELMEQLASKLPTGVGYDWTGMSYQERLSGNQAPSLYAISLIVVFLCLAALYESWSIPFSVMLVVPLGVIGALLAATFRGLTNDVYFQVGLLTTIGLSAKNAILIVEFAKDLMDKEGKGLIEATLDAVRMRLRPILMTSLAFILGVMPLVISTGAGSGAQNAVGTGVMGGMVTATVLAIFFVPVFFVVVRRRFSRKNEDIEHSHTVDHH
KX (trimer association constant, mole fraction) (native gel or EMSA [1]): 1.6e+09

B2: AcrB_(L886G/E893G/W895G) (natural protein, Escherichia coli)
chain: B1 chain with L886G, E893G, W895G
KX (trimer association constant, mole fraction) (native gel or EMSA [1]): 1e+07 | stoichiometry N (native gel or EMSA [2]): 3

B3: AcrB_(E893G) (natural protein, Escherichia coli)
chain: B1 chain with E893G
KX (trimer association constant, mole fraction) (native gel or EMSA [1]): 3.2e+09 | stoichiometry N (native gel or EMSA [2]): 3

B4: AcrB_(E893G/W895G) (natural protein, Escherichia coli)
chain: B1 chain with E893G, W895G
KX (trimer association constant, mole fraction) (native gel or EMSA [1]): 8.6e+06 | stoichiometry N (native gel or EMSA [2]): 3

B5: AcrB_(L886G/E893G) (natural protein, Escherichia coli)
chain: B1 chain with L886G, E893G
KX (trimer association constant, mole fraction) (native gel or EMSA [1]): 1e+07 | stoichiometry N (native gel or EMSA [2]): 3

B6: AcrB_(L886G) (natural protein, Escherichia coli)
chain: B1 chain with L886G
KX (trimer association constant, mole fraction) (native gel or EMSA [1]): 1.4e+07 | stoichiometry N (native gel or EMSA [2]): 3

B7: AcrB_(W895G) (natural protein, Escherichia coli)
chain: B1 chain with W895G
KX (trimer association constant, mole fraction) (native gel or EMSA [1]): 2.2e+07 | stoichiometry N (native gel or EMSA [2]): 3
